From PMC8300624, “Prdx1 Interacts with ASK1 upon Exposure to H2O2 and Independently of a Scaffolding Protein” (Antioxidants, 2021) come the findings set out here.

Experiment [1] deals with T1, recombinant wild-type peroxiredoxin-1 (Prdx1 WT) (human, UniProt Q06830 1-199).
T1 construct: peroxiredoxin-1 (Prdx1); In the BLI the protein was pre-reduced with DTT, desalted and then met the sensor in 10 µM H2O2 or 10 µM DTT; also called pET17-Prdx1; source: E. coli BL21, purified (Phenyl Sepharose, SP Sepharose, Superdex 75)
T1 sequence (looked up): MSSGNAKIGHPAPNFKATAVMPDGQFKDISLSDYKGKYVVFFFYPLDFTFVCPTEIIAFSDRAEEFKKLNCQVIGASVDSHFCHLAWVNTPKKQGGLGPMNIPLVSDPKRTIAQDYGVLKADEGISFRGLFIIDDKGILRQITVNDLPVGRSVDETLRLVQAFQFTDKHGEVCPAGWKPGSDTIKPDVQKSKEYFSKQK
Description: BLI; Octet Red 96; His-tagged MBP-ASK1-TBD loaded on Ni2+-NTA sensors at 0.45 µM; Prdx as analyte at 1 µM or at different concentrations for kon and koff; 10 µM H2O2 (oxidizing condition); 25 mM Tris/HCl pH 7.4, 25 mM NaCl, 1% BSA, 0.05% Tween 20, 0.01 mM maltose; His-tagged MBP as reference; the paper takes the bond to be a mixed disulfide. To be noted: both partners purified.

The target in experiment [2] is T2, recombinant Prdx1 C173A (resolving cysteine mutant) (human, UniProt Q06830 1-199, C173A).
T2 construct: peroxiredoxin-1 (Prdx1) with C173A; purified by the same protocol as Prdx1 WT; source: E. coli BL21, purified (Phenyl Sepharose, SP Sepharose, Superdex 75)
T2 sequence (looked up): T1 sequence (looked up) with C173A
The experiment is described as above. The conditions noted are these: both partners purified.

Changes are numbered by the printed parent chain.

B1: 6xHis-MBP-ASK1-TBD (thioredoxin-binding domain of ASK1 with N-terminal His tag and maltose binding protein) (domain or fragment)
chain: SRRTTVAYVINEASQGQLVVAESEALQSLREACETVGATLETLHFGKLDFGETTVLDRFYNADIAVVEMSDAFRQPSLFYHLGVRESFSMANNIILYCDTNSDSLQSLKEIICQKNTMCTGNYTFVPYMITPHNKVYCCDSSFMKGLTELMQPNFELLLGPICLPLVDRFIQLLKVAQASSSQYFRESILNDIRKARNLYTGKELAAELARIRQR
modifications: Limits are not given; 88-302 is the usual recombinant ASK1-TBD construct and spans the listed TBD cysteines 120-250. His6-MBP-TEV carrier omitted. Assayed with 10 uM H2O2 (oxidizing) or 10 uM DTT …
As to B1, in experiment [1], the koff turned out to be 0.0002 s⁻¹ and the kon was found to be 32700 M⁻¹ s⁻¹. For the same molecule, in experiment [2], the koff came to 0.00228 s⁻¹ and the kon was found to be 7200 M⁻¹ s⁻¹.
